Data from patent US20240043489A1, “Cytokine Prodrugs Comprising a Cleavable Linker” (Trutino Biosciences Inc., priority 2020, published 2024).
Entries after “also recorded” stand apart in the source; their conditions may differ.

Legend:
MMP9 = molecular target: T1, MMP9 (Mus musculus, UniProt P41245); experiment: Cleavage of fusion protein by MMP9 protease (SDS-PAGE / Western blot); assay type: biochemical
T1 construct: purchased R&D Systems
Experimental: Recombinant MMP9 and/or MMP2 (R&D Systems) was first activated with p-aminophenylmercuric acetate and this activated protease or equivalent amount of activating solution without the protease was used to digest or mock digest the fusion protein for 1 hr, 2 hr, 4 hr and overnight (18-22 hr) at 37 C. Cleavage assays are set up in TCNB buffer: 50 mM Tris, 10 mM CaCl2), 150 mM NaCl, 0.05% Brij-35 (w/v), pH 7.5. Digested protein was aliquoted and stored at −80° C. prior to testing. Aliquots of digests were subsequently analyzed by SDS-PAGE followed by Western blotting to evaluate the extent of cleavage. Digests were also assessed in functional assays such as CTLL-2 proliferation and HEK-Blue Interleukin reporter assays. As shown in FIGS. 2A-E, essentially complete cleavage by MMP9 protease of the fusion proteins with functional site is seen after overnight incubation. In contrast, proteins containing a scrambled MMP cleavage site are not cut (FIG. 2E).
Untreated and digested fusion proteins were evaluated for cleavage products by Western blot. The following monoclonal antibodies were used: rat anti-mouse IL-2 antibody (JES6-1A12; ThermoFisher), goat anti-mouse IL-2 polyclonal antibody (AF-402-NA; R&D systems), mouse anti-6xHis monoclonal antibody (MA1-21315, ThermoFisher), Anti-mIgG Fc HRP conjugated (ThermoFisher cat #A16084), and Anti-human IL2 antibody (Invitrogen, cat #MA5-17097, mouse IgG1). Detection was performed using either a goat anti-rat HRP-conjugated antibody, Donkey Anti-goat HRP-conjugated antibody or Goat Anti-mouse HIRP conjugated (Jackson Immuno Research, West Grove, PA) and developed using the SuperSignal West Femto Maximum sensitivity detection reagent (ThermoFisher) following the manufacturer's recommendations.

[1] = In vitro serum stability of fusion protein (sandwich ELISA); assay type: in vitro ADME; settings: 37C up to 72 h; serum of naive and MC38 tumor bearing C57BL/6 mice
Experimental: We developed an ELISA assay to detect and quantify fusion proteins comprising IL-2 and IL-2Rα moieties. Wells of a 96-well plate are coated overnight with 100 uL of a rat anti-mouse IL-2 monoclonal antibody (JES6-1A12; ThermoFisher) at […] in PBS. After washing, wells are blocked with TBS/0.05% Tween 20/1% BSA, then fusion proteins and/or unknown biological samples are added for 1 hr at room temperature. After washing, an anti-mouse IL-2Rα biotin-labelled detection antibody (BAF2438, R&D systems) is added and binding is detected using Ultra Strepavidin HRP (ThermoFisher). The ELISA plate was developed by adding the chromogenic tetramethylbenzidine substrate (Ultra TMB, ThermoFisher). The reaction is stopped by addition of 0.5M H2SO4 and the absorbance is read at 450-650 nm.
Construct B was incubated at 37C for up to 72 h with serum collected from 8 weeks old female C57BL/6 naive and MC38 tumor bearing mice respectively (n=2 per serum type, tumor volume >3000 mm3 at time of collection), in order to examine both non-specific cleavage as well as MMP-specific off-target cleavage. Samples were collected at 0 h, 4 h, 8 h, 24 h, 48 h and 72 h and the intact non-MMP cleaved fusion protein was quantified using an in-house developed sandwich ELISA.

[2] = system: tumor infiltrating immune cells; experiment: Immune cell populations by immunohistochemistry in MC38 tumor samples; assay type: in vivo, mice; settings: MC38 tumors, 10 mg/kg IV Q3D for 21 days
Experimental: The objective of this study is to evaluate immune targets in tumor samples by IHC. See below for details: • CD4+Foxp3 double immunofluorescence staining • CD8, CD25, CD3, CD4 and CD335 single IHC staining
7 tumor samples were selected from the systemic in vivo efficacy study and formalin-fixed paraffin embedded (FFPE) blocks were prepared following standard embedding process.
FFPE blocks were sectioned with a manual rotary microtome (4 μm thickness/section) and optimized IHC assay protocols for all the antibodies were used. All stained sections were scanned with NanoZoomer-S60 Image system with 40× magnification. High resolution picture for whole section was generated and further analyzed.
Scoring Method: All the images were analyzed with HALO™ Image Analysis platform. The whole slide image was analyzed and necrosis area was excluded. The total cells and IHC positive cells were counted. IHC score is presented as the ratio of the positive cell counts against the total cell numbers within whole section and shown in FIG. 8.

EMT06 = experiment: In vivo efficacy in EMT06 breast syngeneic model; set-up: species or system mice; settings: EMT06, BALB/c, 20 mpk IV Q3D, D20
Experimental: (§1) For the efficacy studies, C57BL/6 or BALB/c mice were subcutaneously inoculated with malignant cells and when the average tumor volume reached on average 90 mm^3, animals were randomized into 2 groups based on tumor volumes (n=10 mice per treatment group). Mice were dosed intravenously every 3 days (Q3D) at 20 mg/kg. Tumors, body weights and clinical observations were measured/collected twice a week for the duration of the study. Tumor volume is shown in FIGS. 10A-D, 11A, 12A, and 13B-C. […] Liver and kidney enzyme results corresponding to FIGS. 11A and 12A are shown in FIGS. 11B-D and 12B-D, respectively.

B16F10 = experiment: In vivo efficacy in B16F10 melanoma model (Example 12)
Experimental: as §1

RM-1 = experiment: In vivo efficacy in RM-1 prostate cancer model
Experimental: as §1

fibronectin = fibronectin (Homo sapiens, UniProt P02751); experiment: IL-2 fusion protein plate binding assay to fibronectin
Experimental: A similar plate-based assay was developed to interrogate binding of IL-2 fusion variants to fibronectin. 96-well plates were coated with 4 ug/mL of fibronectin (Sigma) or control BSA for 18-22 h at room temperature on shaker (350 rpm). After washing, wells are blocked with protein-free blocking buffer (Pierce) for 90 min, then fusion proteins are titrated in blocking buffer-0.1% Tween 20 pH 7.5 and/or pH 6 and added for 1 hr at room temperature with shaking. After washing, an anti-mouse IL-2 biotin-labelled detection antibody (JES6-5H4, ThermoFisher) is added and binding is detected using Ultra Streptavidin HRP (ThermoFisher). The plate was developed by adding the chromogenic tetramethylbenzidine substrate (Ultra TMB, ThermoFisher). The reaction is stopped by addition of 0.5M H2SO4 and the absorbance is read at 450-650 nm.

T1 sequence (P41245 108-730): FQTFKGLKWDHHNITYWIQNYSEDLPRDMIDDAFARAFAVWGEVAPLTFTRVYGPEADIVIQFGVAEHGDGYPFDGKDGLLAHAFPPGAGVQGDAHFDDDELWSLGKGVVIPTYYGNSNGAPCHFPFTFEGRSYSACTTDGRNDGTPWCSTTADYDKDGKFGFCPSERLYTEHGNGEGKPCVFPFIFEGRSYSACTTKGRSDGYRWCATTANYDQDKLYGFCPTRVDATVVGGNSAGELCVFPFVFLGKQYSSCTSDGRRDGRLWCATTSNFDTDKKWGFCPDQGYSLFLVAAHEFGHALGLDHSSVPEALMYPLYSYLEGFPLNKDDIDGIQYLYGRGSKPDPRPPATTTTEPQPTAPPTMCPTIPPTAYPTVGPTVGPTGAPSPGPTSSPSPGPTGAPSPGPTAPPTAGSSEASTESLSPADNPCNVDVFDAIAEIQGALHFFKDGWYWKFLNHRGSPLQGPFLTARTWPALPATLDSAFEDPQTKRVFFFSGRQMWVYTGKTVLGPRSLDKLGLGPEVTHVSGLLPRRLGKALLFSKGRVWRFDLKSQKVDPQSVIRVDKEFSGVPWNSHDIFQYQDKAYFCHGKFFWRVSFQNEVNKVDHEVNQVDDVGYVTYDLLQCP
Chain of fibronectin (P02751 32-2477, species assumed): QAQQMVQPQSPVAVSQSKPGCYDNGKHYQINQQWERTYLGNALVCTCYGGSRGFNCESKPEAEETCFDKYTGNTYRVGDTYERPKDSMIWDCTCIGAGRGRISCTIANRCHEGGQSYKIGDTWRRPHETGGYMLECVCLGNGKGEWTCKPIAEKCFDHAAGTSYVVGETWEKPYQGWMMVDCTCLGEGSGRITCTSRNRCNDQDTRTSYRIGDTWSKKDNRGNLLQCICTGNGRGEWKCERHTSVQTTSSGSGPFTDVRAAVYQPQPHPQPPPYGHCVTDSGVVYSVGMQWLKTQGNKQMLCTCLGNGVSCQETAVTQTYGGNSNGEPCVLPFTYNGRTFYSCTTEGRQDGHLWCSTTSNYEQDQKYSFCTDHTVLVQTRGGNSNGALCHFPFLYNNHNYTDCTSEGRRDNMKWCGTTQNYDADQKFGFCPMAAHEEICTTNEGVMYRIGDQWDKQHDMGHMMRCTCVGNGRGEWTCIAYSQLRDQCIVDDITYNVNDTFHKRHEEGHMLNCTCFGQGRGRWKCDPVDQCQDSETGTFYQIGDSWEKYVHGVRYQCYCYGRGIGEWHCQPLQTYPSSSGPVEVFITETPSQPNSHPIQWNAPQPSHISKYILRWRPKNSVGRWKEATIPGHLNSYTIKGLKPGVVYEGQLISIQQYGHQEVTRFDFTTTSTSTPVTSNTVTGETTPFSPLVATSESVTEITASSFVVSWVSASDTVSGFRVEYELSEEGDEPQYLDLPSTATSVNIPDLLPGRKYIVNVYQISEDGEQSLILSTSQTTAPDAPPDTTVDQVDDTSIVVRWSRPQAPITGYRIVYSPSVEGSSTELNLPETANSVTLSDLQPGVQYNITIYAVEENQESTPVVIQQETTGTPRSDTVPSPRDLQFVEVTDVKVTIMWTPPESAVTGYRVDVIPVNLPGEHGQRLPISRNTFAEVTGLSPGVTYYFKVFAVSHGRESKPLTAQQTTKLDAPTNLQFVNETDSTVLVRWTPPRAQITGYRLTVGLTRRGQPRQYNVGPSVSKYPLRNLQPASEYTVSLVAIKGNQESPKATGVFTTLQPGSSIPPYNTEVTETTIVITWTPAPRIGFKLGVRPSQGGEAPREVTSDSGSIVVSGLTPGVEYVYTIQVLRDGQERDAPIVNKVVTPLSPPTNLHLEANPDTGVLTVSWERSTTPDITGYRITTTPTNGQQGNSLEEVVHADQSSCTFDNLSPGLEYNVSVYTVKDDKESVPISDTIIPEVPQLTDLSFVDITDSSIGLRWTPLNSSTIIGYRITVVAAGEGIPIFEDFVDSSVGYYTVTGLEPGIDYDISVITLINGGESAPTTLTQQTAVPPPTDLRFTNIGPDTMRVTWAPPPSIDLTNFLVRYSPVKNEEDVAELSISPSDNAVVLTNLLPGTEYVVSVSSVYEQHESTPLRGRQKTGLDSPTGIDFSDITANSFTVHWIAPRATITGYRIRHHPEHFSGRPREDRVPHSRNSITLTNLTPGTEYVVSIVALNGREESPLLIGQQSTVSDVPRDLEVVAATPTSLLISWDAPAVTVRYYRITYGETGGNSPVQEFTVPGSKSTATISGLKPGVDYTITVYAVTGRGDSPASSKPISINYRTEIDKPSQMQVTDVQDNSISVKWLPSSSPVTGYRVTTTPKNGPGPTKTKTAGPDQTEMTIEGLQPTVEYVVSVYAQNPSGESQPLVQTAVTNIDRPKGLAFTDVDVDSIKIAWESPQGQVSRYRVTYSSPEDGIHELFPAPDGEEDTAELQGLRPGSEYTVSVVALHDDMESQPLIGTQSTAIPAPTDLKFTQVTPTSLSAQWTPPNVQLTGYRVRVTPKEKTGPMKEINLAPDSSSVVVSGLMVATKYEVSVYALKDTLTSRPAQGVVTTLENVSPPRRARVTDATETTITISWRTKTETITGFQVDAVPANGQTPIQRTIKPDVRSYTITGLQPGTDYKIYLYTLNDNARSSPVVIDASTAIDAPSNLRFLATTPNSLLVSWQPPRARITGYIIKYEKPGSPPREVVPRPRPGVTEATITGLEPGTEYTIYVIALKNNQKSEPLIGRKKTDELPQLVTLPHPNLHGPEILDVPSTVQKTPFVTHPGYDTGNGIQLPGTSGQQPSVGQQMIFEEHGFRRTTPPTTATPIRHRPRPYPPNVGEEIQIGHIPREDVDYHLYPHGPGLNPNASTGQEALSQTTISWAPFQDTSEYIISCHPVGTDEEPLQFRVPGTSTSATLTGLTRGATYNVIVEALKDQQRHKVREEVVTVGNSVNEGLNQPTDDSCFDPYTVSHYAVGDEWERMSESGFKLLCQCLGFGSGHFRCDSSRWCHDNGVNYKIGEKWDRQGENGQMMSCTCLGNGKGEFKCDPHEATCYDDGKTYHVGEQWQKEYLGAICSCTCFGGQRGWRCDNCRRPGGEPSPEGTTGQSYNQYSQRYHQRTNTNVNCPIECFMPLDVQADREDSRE

B1: Construct B: SEQ ID NO 101: m IL2-2x(SG4)-MMPcs1-2x(G4S)-IL2Ralpha-mIgG1 Fc (protein)
chain: APTSSSTSSSTAEAQQQQQQQQQQQQHLEQLLMDLQELLSRMENYRNLKLPRMLTFKFYLPKQATELKDLQCLEDELGPLRHVLDLTQSKSFQLEDAENFISNIRVTVVKLKGSDNTFECQFDDESATVVDFLRRWIAFCQSIISTSPQSGGGGSGGGGGPLGVRGGGGGSGGGGSELCLYDPPEVPNATFKALSYKNGTILNCECKRGFRRLKELVYMRCLGNSWSSNCQCTSNSHDKSRKQVTAQLEHQKEQQTTTDMQKPTQSMHQENLTGHCREPPPWKHEDSKRIYHFVEGQSVHYECIPGYKALQRGPAISICKMKCGKTGWTQPQLTCVDEREHHRFLASEESQGSRNSSPESETSCPITTTDFPQPTETTAMTETFVLTMEYKGCKPCICTVPEVSSVFIFPPKPKDVLTITLTPKVTCVVVDISKDDPEVQFSWFVDDVEVHTAQTQPREEQFNSTFRSVSELPIMHQDWLNGKEFKCRVNSAAFPAPIEKTISKTKGRPKAPQVYTIPPPKEQMAKDKVSLTCMITDFFPEDITVEWQWNGQPAENYKNTQPIMDTDGSYFVYSKLNVQKSNWEAGNTFTCSVLHEGLHNHHTEKSLSHSPGK
For B1, which “full-length cytokine prodrug remaining” value (MMP9; 20 hour +MMP time point) is on record?
The value was “only a faint band”.

What about the “time at which cleavage product was detectable” value (MMP9; +MMP-9 digestion, Western blot) of the same molecule?
Its value is 1 h.

And the “stability of intact fusion protein in serum” value [1]?
The value was “stable”.

And the “tumor infiltrating immune cells (IHC score) vs vehicle” value [2]?
Its value is “Significantly more immune cells of all tested types; also recorded: significant increase in tumor infiltrating immune cells”.

What about the “Max TGI %” value (EMT06) of the same molecule?
The value was 43%.

And the “Max TGI %” value (B16F10; B16F10, C57BL/6, 20 mpk IV Q3D, D12)?
Its value is 49%.

And the “signs of toxicity (body weight loss, liver and/or kidney enzymes, clinical observations)” value (B16F10; B16F10 model, 20 mg/kg IV Q3D)?
The value was “no signs of toxicity”.

And the “signs of toxicity (body weight loss, liver and/or kidney enzymes, clinical observations)” value (RM-1; RM-1 model, 20 mg/kg IV Q3D)?
The value was “no signs of toxicity”.

What about the “Max TGI %” value (RM-1; RM_1, C57BL/6, 20 mpk IV Q3D, D10) of the same molecule?
Its value is 58%.

And the “fibronectin binding at acidic pH” value (fibronectin; pH 6)?
Its value is “No significant binding”.

What about the “fibronectin binding at pH 7.5” value (fibronectin; pH 7.5 (neutral)) of the same molecule?
The value was “No significant binding”.
